Results as given in publication PMC5440646 (2017).
Where no end group is shown, it is not given here. [ ]: non-standard residue; d: D form. The star is where a group is joined. Biotin = O=C1N[C@H]2[C@H](CS[C@H]2CCCCC(=O)*)N1; pY = N[C@@H](Cc1ccc(OP(=O)(O)O)cc1)C(=O)O

T1: CD28 pYMN peptide (Homo sapiens, UniProt P10747)
T1 chain: LLHSD[pY]MNMTPRR

T2: CD6 long pY629 peptide (Homo sapiens, UniProt P30203, pY629)
T2 chain: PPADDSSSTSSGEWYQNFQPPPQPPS

T3: SLP-76 SH2 domain, His-tagged (UniProt Q13094 422-530)
T3 chain: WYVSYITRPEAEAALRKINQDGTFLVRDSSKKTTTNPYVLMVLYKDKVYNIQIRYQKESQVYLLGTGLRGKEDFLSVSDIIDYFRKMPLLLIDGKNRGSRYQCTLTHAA

T4: GADS SH2 domain, His-tagged (UniProt O75791 58-149)
T4 chain: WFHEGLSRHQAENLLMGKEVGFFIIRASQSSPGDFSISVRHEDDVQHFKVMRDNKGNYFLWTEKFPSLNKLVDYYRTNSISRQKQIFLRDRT


Columns and labels:
Test in all cases: SPR
[1] = target: T1, CD28 pYMN peptide
[2] = target: T2, CD6 long pY629 peptide
[3] = target: T3, SLP-76 SH2 domain, His-tagged
[4] = target: T4, GADS SH2 domain, His-tagged

Binder | Kd [1] | Kd [2] | Kd [3] | Kd [4]
GADS SH2 (protein) FPKWFHEGLSRHQAENLLMGKEVGFFIIRASQSSPGDFSISVRHEDDVQHFKVMRDNKGNYFLWTEKFPSLNKLVDYYRTNSISRQKQIFLRDRTRED | ~2.5 µM | ~0.4 µM |  | 
Biotin-STSSGEWYQNFQPPPQPPSEEQFGCPGSPSPQPDSTDNDD[pY]DDISAA [long CD6 peptide phosphorylated at Y662] |  |  | 1 µM | 
Biotin-STSSGEW[pY]QNFQPPPQPPSEEQFGCPGSPSPQPDSTDNDD[pY]DDISAA [long CD6 peptide phosphorylated at Y629 and Y662] |  |  | 1 µM | 1 µM
Biotin-STSSGEW[pY]QNFQPPPQPPSEEQFGCPGSPSPQPDSTDNDDYDDISAA [long CD6 peptide phosphorylated at Y629] |  |  |  | 1 µM
